Assays:
[1] = target: human Fibronectin (R&D Systems 1918-FN) (human) (UniProt P02751); experiment: AlphaLISA integrin-ligand binding, ligand at 1.0 nM
[2] = target: human Vitronectin-GST tagged (EMD Millipore 08-126) (human) (UniProt P04004); experiment: AlphaLISA integrin-ligand binding, ligand at 10.0 nM
[3] = target: human Vitronectin-GST tagged (EMD Millipore 08-126) (human) (UniProt P04004); experiment: AlphaLISA integrin-ligand binding, ligand at 1.0 nM
[4] = target: human LAP (R&D system 246-LP) (human) (UniProt P01137); experiment: AlphaLISA integrin-ligand binding, ligand at 0.5 nM
[5] = target: human LAP (R&D system 246-LP) (human) (UniProt P01137); experiment: AlphaLISA integrin-ligand binding, ligand at 3.0 nM
[6] = target: mouse fibronectin (Abcam ab92784) (mouse) (UniProt P11276); experiment: AlphaLISA integrin-ligand binding, ligand at 2.5 nM
[7] = target: mouse fibronectin (Abcam ab92784) (mouse) (UniProt P11276); experiment: AlphaLISA integrin-ligand binding, ligand at 1.0 nM
[8] = target: mouse Vitronectin (Abcam ab92727) (mouse) (UniProt P29788); experiment: AlphaLISA integrin-ligand binding, ligand at 5.0 nM
Chain of mouse Vitronectin (Abcam ab92727) (mouse) (P29788 20-478 limits assumed): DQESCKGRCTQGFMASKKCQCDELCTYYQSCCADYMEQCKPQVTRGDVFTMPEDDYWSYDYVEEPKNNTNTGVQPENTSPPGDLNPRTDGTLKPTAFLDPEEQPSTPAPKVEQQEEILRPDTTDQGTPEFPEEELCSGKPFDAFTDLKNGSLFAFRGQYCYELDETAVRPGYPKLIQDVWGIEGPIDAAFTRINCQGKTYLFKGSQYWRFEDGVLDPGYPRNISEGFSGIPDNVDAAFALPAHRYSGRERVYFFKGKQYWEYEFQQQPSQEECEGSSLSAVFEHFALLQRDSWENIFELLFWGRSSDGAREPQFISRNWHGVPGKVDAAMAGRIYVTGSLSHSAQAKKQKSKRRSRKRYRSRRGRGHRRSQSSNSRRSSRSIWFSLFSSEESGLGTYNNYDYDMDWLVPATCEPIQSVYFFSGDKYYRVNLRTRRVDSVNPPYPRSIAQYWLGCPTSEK

[9] = target: mouse Vitronectin (Abcam ab92727) (mouse) (UniProt P29788); experiment: AlphaLISA integrin-ligand binding, ligand at 2.5 nM
[10] = target: mouse LAP-6His (Chem partner) (mouse) (UniProt P04202); experiment: as above
Chain of mouse LAP-6His (Chem partner) (mouse) (P04202 30-278 limits assumed): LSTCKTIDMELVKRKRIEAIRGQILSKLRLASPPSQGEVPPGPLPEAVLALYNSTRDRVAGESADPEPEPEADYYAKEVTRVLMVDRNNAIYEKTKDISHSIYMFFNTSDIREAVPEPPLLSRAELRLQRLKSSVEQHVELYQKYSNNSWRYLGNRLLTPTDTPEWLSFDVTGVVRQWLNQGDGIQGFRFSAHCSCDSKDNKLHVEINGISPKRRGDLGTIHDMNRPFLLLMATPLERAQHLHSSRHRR

Chain of human Fibronectin (R&D Systems 1918-FN) (human) (P02751 other isoform, or with tags, fused parts or gaps limits assumed): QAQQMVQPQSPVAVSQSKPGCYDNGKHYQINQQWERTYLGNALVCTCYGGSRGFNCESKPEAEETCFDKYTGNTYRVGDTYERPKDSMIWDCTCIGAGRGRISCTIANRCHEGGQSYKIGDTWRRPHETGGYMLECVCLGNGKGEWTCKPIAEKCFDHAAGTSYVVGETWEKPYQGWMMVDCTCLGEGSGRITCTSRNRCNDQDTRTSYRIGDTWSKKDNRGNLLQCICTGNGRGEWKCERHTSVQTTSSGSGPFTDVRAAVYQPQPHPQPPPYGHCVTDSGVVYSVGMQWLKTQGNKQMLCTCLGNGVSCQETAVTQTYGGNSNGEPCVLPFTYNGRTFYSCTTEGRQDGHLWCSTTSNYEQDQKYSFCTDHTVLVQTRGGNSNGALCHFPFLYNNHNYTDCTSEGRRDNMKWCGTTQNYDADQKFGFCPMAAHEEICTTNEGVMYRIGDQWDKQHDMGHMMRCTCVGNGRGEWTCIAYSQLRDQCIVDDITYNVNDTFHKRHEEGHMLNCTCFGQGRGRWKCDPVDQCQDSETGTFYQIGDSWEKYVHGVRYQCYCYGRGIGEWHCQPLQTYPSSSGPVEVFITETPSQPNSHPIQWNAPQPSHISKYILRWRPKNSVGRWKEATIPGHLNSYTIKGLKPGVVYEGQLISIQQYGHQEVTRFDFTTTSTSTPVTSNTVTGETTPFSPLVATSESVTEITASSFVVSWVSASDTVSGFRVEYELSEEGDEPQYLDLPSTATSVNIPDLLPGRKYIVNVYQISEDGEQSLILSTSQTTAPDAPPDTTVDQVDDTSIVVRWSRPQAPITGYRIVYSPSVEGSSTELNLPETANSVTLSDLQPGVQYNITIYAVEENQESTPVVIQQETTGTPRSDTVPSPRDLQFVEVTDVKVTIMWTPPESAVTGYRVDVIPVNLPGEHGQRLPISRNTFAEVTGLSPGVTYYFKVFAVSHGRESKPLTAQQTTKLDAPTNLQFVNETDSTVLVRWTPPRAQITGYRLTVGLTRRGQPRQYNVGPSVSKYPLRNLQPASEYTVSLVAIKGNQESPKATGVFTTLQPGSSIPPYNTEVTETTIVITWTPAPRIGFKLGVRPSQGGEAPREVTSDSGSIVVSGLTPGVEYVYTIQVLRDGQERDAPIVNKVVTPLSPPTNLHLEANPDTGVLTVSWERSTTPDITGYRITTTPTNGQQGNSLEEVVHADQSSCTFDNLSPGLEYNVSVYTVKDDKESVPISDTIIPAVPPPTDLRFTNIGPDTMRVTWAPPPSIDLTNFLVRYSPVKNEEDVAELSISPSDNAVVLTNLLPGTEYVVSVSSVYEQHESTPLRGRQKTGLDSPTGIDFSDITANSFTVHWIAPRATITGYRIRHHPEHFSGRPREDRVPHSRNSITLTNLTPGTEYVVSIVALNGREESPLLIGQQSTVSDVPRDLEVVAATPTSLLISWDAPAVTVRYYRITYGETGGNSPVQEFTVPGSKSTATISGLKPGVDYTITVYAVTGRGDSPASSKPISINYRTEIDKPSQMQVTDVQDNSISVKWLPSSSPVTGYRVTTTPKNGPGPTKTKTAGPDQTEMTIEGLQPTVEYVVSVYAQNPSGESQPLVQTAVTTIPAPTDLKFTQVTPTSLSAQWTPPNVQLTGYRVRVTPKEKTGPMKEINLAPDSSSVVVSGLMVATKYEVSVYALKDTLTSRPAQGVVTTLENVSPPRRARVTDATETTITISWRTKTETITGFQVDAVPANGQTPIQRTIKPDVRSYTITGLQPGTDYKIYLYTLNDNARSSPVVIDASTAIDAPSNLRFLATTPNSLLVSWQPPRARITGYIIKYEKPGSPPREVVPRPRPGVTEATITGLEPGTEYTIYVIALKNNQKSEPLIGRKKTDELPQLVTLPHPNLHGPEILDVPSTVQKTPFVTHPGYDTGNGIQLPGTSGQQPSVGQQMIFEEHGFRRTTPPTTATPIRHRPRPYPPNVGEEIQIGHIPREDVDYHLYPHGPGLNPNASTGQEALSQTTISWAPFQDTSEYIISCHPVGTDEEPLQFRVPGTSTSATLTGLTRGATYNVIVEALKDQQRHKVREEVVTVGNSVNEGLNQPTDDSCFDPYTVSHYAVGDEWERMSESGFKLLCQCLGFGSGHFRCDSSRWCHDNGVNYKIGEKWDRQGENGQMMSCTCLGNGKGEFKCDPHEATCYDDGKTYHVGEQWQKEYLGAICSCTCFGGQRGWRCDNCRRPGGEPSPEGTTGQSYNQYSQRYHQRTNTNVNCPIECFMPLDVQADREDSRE

recombinant human αvβ1 integrin extracellular domains (from UniProt P06756 1-992; P05556 1-728) (receptor)
Integrin EC80 (batch dependent) [1]: 1.4 nM

recombinant human αvβ3 integrin extracellular domains (from UniProt P06756 1-992; P05106 1-718) (receptor)
Integrin EC80 (batch dependent) [2]: 3 nM

recombinant human αvβ5 integrin extracellular domains (from UniProt P06756 1-992; P18084 1-719) (receptor)
Integrin EC80 (batch dependent) [3]: 2.5 nM

recombinant human αvβ6 integrin extracellular domains (from UniProt P06756 1-992; P18564 1-709) (receptor)
Integrin EC80 (batch dependent) [4]: 0.1 nM

recombinant human αvβ8 integrin extracellular domains (from UniProt P06756 1-992; P26012 1-684) (receptor)
Integrin EC80 (batch dependent) [5]: 1 nM

recombinant mouse α5β1 integrin extracellular domains (from UniProt P11688 1-999; P09055 1-728) (receptor)
Integrin EC80 (batch dependent) [6]: 1 nM

recombinant mouse αvβ1 integrin extracellular domains (from UniProt P43406 1-988; P09055 1-728) (receptor)
Integrin EC80 (batch dependent) [7]: 4.3 nM

recombinant mouse αvβ3 integrin extracellular domains (from UniProt P43406 1-988; O54890 1-717) (receptor)
Integrin EC80 (batch dependent) [8]: 3 nM

recombinant mouse αvβ5 integrin extracellular domains (from UniProt P43406 1-988; O70309 1-719) (receptor)
Integrin EC80 (batch dependent) [9]: 0.6 nM

recombinant mouse αvβ6 integrin extracellular domains (from UniProt P43406 1-988; Q9Z0T9 1-706) (receptor)
Integrin EC80 (batch dependent) [10]: 1.4 nM

recombinant mouse αvβ8 integrin extracellular domains (from UniProt P43406 1-988; Q0VBD0 1-679) (receptor)
Integrin EC80 (batch dependent) [10]: 1 nM

Reference: patent publication US20250313635A1, “ANTI-INTEGRIN ANTIBODIES AND USES THEREOF” (Merck Sharp & Dohme LLC, priority 2022, published 2025)
